Tests used:
[1] = target: IL-2 receptor signaling complex on primary human NK cells and CD8+ T cells (IL-2Rβγ) (human) (UniProt P14784); test: cell-based or functional assay; set-up: unit not given beside the values
[2] = target: IL-2 receptor signaling complex on primary human Treg cells (IL-2Rα expressing; IL-2Rαβγ) (human) (UniProt P01589); test: cell-based or functional assay; set-up: unit not given beside the values
Sequence of IL-2 receptor signaling complex on primary human Treg cells (IL-2Rα expressing; IL-2Rαβγ) (human) (P01589 22-272, chain 1 of 3): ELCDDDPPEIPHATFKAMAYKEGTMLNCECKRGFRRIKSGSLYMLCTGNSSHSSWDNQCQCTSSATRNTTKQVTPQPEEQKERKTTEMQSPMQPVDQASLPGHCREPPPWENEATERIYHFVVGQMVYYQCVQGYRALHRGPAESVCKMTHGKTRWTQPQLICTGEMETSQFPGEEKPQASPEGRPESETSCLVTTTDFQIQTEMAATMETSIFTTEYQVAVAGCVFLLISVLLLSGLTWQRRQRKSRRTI
Sequence of IL-2 receptor signaling complex on primary human Treg cells (IL-2Rα expressing; IL-2Rαβγ) (human) (P14784 27-551, chain 2 of 3, further chain): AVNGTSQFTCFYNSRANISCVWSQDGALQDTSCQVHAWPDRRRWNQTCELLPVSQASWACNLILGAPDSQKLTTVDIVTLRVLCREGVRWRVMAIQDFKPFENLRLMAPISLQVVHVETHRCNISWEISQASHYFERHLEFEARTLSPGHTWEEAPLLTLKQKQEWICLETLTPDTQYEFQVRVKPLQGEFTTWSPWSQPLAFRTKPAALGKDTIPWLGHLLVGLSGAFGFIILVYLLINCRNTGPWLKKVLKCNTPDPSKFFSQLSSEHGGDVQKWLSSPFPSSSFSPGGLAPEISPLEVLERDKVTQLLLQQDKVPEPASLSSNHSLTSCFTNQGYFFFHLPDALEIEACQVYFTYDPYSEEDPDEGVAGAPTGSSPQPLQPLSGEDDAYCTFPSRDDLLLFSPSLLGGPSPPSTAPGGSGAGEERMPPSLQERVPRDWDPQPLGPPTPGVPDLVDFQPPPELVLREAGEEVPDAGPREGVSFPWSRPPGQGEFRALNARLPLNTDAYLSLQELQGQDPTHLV
Sequence of IL-2 receptor signaling complex on primary human Treg cells (IL-2Rα expressing; IL-2Rαβγ) (human) (P31785 23-369, chain 3 of 3, further chain): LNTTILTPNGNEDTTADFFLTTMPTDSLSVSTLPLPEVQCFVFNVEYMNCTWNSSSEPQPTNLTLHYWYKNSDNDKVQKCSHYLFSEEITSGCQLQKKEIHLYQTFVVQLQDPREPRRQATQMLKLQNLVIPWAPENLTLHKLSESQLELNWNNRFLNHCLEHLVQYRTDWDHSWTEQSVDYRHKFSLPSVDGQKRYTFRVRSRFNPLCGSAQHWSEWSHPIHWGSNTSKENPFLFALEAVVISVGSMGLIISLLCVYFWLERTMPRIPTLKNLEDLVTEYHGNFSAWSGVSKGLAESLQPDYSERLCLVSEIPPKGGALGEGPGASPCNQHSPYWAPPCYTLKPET

Sequence of IL-2 receptor signaling complex on primary human NK cells and CD8+ T cells (IL-2Rβγ) (human) (P14784 27-551, chain 1 of 2): as the sequence (P14784 27-551, chain 2 of 3, further chain) above
Sequence of IL-2 receptor signaling complex on primary human NK cells and CD8+ T cells (IL-2Rβγ) (human) (P31785 23-369, chain 2 of 2, further chain): as the sequence (P31785 23-369, chain 3 of 3, further chain) above
Sequence of S127_30kD (P60568 other isoform, or with tags, fused parts or gaps limits assumed): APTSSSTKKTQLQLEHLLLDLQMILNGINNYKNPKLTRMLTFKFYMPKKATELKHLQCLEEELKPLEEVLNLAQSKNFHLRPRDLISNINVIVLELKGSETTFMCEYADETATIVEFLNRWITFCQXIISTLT

## N88R (from UniProt P60568 21-153) (ligand)
[1]
  EC50 for pSTAT5 signaling, CD8+ T cells: 1.5e+07
  EC50 for pSTAT5 signaling, NK cells: 2.31e+06
[2]
  EC50 for pSTAT5 signaling, Treg cells: 11100

## N88R/D109_30kD (from UniProt P60568 21-153) (ligand)
[1]
  EC50 for pSTAT5 signaling, CD8+ T cells: 1.25e+07
  EC50 for pSTAT5 signaling, NK cells: 2.78e+06
[2]
  EC50 for pSTAT5 signaling, Treg cells: 176000

## S127_30kD (from UniProt P60568 21-153) (ligand)
[2]
  EC50 for pSTAT5 signaling, Treg cells: 150

## V91K (from UniProt P60568 21-153) (ligand)
[1]
  EC50 for pSTAT5 signaling, CD8+ T cells: 102000
  EC50 for pSTAT5 signaling, NK cells: 20500
[2]
  EC50 for pSTAT5 signaling, Treg cells: 142
